Where two headings read alike, the source gives them in different places.
Experiments:
[1] = molecular target: T1, ISG20 (UniProt Q96AZ6 1-181); test: EMSA
[2] = molecular target: T1, ISG20; test: EMSA; remark: listed apart in the source

T1 sequence (Q96AZ6 whole entry): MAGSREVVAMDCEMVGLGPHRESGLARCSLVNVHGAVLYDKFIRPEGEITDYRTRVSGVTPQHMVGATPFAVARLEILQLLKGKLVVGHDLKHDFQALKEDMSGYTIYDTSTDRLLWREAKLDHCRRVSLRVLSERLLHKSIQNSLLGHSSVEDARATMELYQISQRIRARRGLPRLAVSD

Question: Does GGTCGTCCGCAGGATTCAGCGCCG (ssDNA) [033: (-) ssDNA] bind [1]?
Answer: binds

Question: Does CGGCGCTGAATCCTGCGGACGACC (ssDNA) [036: (+) ssDNA] bind [1]?
Answer: binds

Question: Does GGTUGTUUGUAGGATTUAGUGUUG (ssDNA, all deoxycytidines replaced by deoxyuridine; U = dU) [035: dU-containing (-) ssDNA] bind [2]?
Answer: binds

— publication PMC8183418
